Literature values, collected in US20240139347A1, “COMPLEX, VASCULAR CONTRAST AGENT, X-RAY CONTRAST AGENT, METHOD FOR PRODUCING COMPLEX, AND IMAGING METHOD FOR CAPTURING STRUCTURAL CHANGE IN VESSEL” (TOHOKU UNIVERSITY, priority 2021, published 2024).

Details: Y. Nojima et al., Pharm. Res. 26 (2009)

B1: lactoferrin: lactoferrin (MW: 80 kDa), protein used in the complex of Example 1 (protein, UniProt P02788 20-710, looked up)
Lactotransferrin: GRRRSVQWCAVSQPEATKCFQWQRNMRKVRGPPVSCIKRDSPIQCIQAIAENRADAVTLDGGFIYEAGLAPYKLRPVAAEVYGTERQPRTHYYAVAVVKKGGSFQLNELQGLKSCHTGLRRTAGWNVPIGTLRPFLNWTGPPEPIEAAVARFFSASCVPGADKGQFPNLCRLCAGTGENKCAFSSQEPYFSYSGAFKCLRDGAGDVAFIRESTVFEDLSDEAERDEYELLCPDNTRKPVDKFKDCHLARVPSHAVVARSVNGKEDAIWNLLRQAQEKFGKDKSPKFQLFGSPSGQKDLLFKDSAIGFSRVPPRIDSGLYLGSGYFTAIQNLRKSEEEVAARRARVVWCAVGEQELRKCNQWSGLSEGSVTCSSASTTEDCIALVLKGEADAMSLDGGYVYTAGKCGLVPVLAENYKSQQSSDPDPNCVDRPVEGYLAVAVVRRSDTSLTWNSVKGKKSCHTAVDRTAGWNIPMGLLFNQTGSCKFDEYFSQSCAPGSDPRSNLCALCIGDEQGENKCVPNSNERYYGYTGAFRCLAENAGDVAFVKDVTVLQNTDGNNNEAWAKDLKLADFALLCLDGKRKPVTEARSCHLAMAPNHAVVSRMDKVERLKQVLLHQQAKFGRNGSDCPDKFCLFQSETKNLLFNDNTECLARLHGKTTYEKYLGPQYVAGITNLKKCSTSPLLEACEFLRK
half-life in blood of lactoferrin alone: about 7.8 min
